According to article PMC6222600, “Application of Neurokinin-1 Receptor in Targeted Strategies for Glioma Treatment. Part I: Synthesis and Evaluation of Substance P Fragments Labeled with ^99mTc and ^177Lu as Potential Receptor Radiopharmaceuticals” (Molecules : A Journal of Synthetic Chemistry and Natural …, 2018):
Read-outs that look alike come from different tables or passages of the source. Where a SMILES comes first, the peptide text is derived from it. Where no end group is shown, it is not given here. [ ]: non-standard residue; d: D form. The star is where a group is joined. DOTA = O=C(O)CN1CCN(CC(=O)O)CCN(CC(=O)*)CCN(CC(=O)O)CC1; Met(O2) = CS(=O)(=O)CC[C@H](N)C(=O)O; NS3/CN = chelator carrying 99mTc; 2Thi = N[C@@H](Cc1cccs1)C(=O)O

What was measured:
[1] = Lipophilicity (logP), partition in n-octanol/PBS (pH 7.4); format: physicochemical
Protocol: The partition coefficient was measured for each compound in a biphasic system of n-octanol/PBS (pH 7.4). The biphasic mixture was shaken (vortex, 1 min) and then centrifuged (14,000 rpm, 5 min) before the organic (n-octanol) and aqueous (PBS, pH 7.4) phases were separated. The activity of each phase (corresponding to the content of radiobioconjugate) was determined by measuring γ-radiation, using a well-type NaI(Tl) detector. P was calculated as the ratio of activity in the organic versus aqueous phases (as an average value from at least three independent measurements). Immediately after the γ-radiation measurements, the aqueous phase was analyzed by HPLC (system 2) to determine whether the tested radiobioconjugate existed in the liquid phase in an unchanged form.

[2] = format: in vitro ADME, human
Protocol: Stability tests of 2a–e compounds in CSF and HS were performed similarly to the previous one. The solution (0.1 mL) of isolated 2a–e radiobioconjugate in 0.1 M PBS buffer (pH 7.4), was added to 0.9 mL of CSF or HS and incubated at 37 °C. After specific time intervals (1, 2, 4 and 24 h), a small sample (0.1–0.2 mL) of the mixture was taken, mixed with ethanol (0.3–0.5 mL) and shaken vigorously to precipitate protein components as well as part of the tested radiobioconjugate bound to protein components. The sample was then centrifuged (14,000 rpm, 5 min) and the supernatant separated. The radioactivities of both supernatant and precipitate were measured using the well-type NaI(Tl) detector (Institute of Nuclear Chemistry and Technology, Warsaw, Poland). […]

[3] = target: T1, NK-1 receptors expressed on glioblastoma cells (U373 MG) (Homo sapiens, UniProt P25103); assay: Saturation binding studies on U373 MG cells; settings: 37 °C, 1.5 h, Scatchard analysis, mean ± SD of three experiments
T1 construct: host or cells: U373 MG (Uppsala) human glioblastoma astrocytoma cells
Protocol: To determine the affinity of selected radiobioconjugates: […] One day before the experiment, 8 × 10^5 cells/well were seeded in six-well plates. To determine total binding, different concentrations of peptides (15.3 pM to 100 nM) were added to the cells and incubated at 37 °C for 1.5 h. Cellular uptake was stopped by aspirating the reaction supernatant, followed by washing twice with 1 mL of cold PBS. Finally, the cells were lysed using 1 M NaOH to detach them from the well plates. To determine nonspecific binding, the cells were incubated with 1000-fold excess of unlabelled peptides. The radioactivities of collected samples with cell pellets and supernatants were measured using Perkin Elmer automatic γ-counter. The specific binding was obtained by subtracting nonspecific binding from total binding. For estimating the receptor density (Bmax) and the dissociation constant (Kd) of the receptor for the studied radiobioconjugates, the Scatchard analysis method was used. Results are means ±SD of three individual experiments.

[4] = target: [177Lu]DOTA-[Thi8,Met(O2)11]Substance P(5-11) 5-11 (Homo sapiens, UniProt P20366, 177Lu-DOTA, Thi8, Met(O2)11); assay: radioligand binding
[5] = target: [177Lu]DOTA-Substance P(4-11) 4-11 (Homo sapiens, UniProt P20366, 177Lu-DOTA); assay: radioligand binding
[6] = target: [177Lu]DOTA-[Thi8,Met(O2)11]Substance P(1-11) 1-11 (Homo sapiens, UniProt P20366, 177Lu-DOTA, Thi8, Met(O2)11); assay: radioligand binding

Molecule	logP ([1]; pH 7.4)	Enzymatic biomolecule biodegradation in human serum (ITLC) [2]	Kd [3]	other results
[^99mTc]NS3/CN-SP(4–11) ({NS3/CN}-PQQFFGLM; ends and bridges not checked; also: 99mTc complex of NS3/CN chelate; UniProt P20366 61-68, looked up, fragment) [1c, SP(4–11) labelled with technetium-99m via NS3/CN-BFCA]	0.09 ± 0.02			
CSCC[C@H](NC(=O)[C@H](CC(C)C)NC(=O)CNC(=O)[C@H](Cc1ccccc1)NC(=O)[C@H](Cc1ccccc1)NC(=O)[C@H](CCC(N)=O)NC(=O)[C@H](CCC(N)=O)NC(=O)CN1CCN(CC(=O)O)CCN(CC(=O)O)CCN(CC(=O)O)CC1)C(N)=O [2d, [^177Lu]DOTA-SP(5–11), metal not drawn] ({DOTA}-QQFFGLM-NH2)	-2.68 ± 0.01	virtually all of the radiobiomolecule that was deposited onto the strip was degraded enzymatically		
[^99mTc]NS3/CN-[Thi^8,Met(O2)^11]SP(5–11) [1e]	0.64 ± 0.02			
[^99mTc]NS3/CN-SP(5–11) ({NS3/CN}-QQFFGLM; ends and bridges not checked; also: 99mTc complex of NS3/CN chelate; UniProt P20366 62-68, looked up, fragment) [1d, SP(5–11) labelled with technetium-99m via NS3/CN-BFCA]	1.14 ± 0.01			
[C-]#[N+]CCCC(=O)N[C@@H](CCCNC(=N)N)C(=O)N1CCC[C@H]1C(=O)N[C@@H](CCCCN)C(=O)N1CCC[C@H]1C(=O)N[C@@H](CCC(N)=O)C(=O)N[C@@H](CCC(N)=O)C(=O)N[C@@H](Cc1ccccc1)C(=O)N[C@@H](Cc1ccccc1)C(=O)NCC(=O)N[C@@H](CC(C)C)C(=O)N[C@@H](CCSC)C(N)=O [1a, [^99mTc]NS3/CN-SP(1–11), metal not drawn]				logP ([1]; n-octanol/PBS pH 7.4, [99mTc]NS3/CN-SP radiobioconjugates, read-out: logP): 0.26 ± 0.05
CSCC[C@H](NC(=O)[C@H](CC(C)C)NC(=O)CNC(=O)[C@H](Cc1ccccc1)NC(=O)[C@H](Cc1ccccc1)NC(=O)[C@H](CCC(N)=O)NC(=O)[C@H](CCC(N)=O)NC(=O)[C@@H]1CCCN1C(=O)[C@H](CCCCN)NC(=O)[C@@H]1CCCN1C(=O)[C@H](CCCNC(=N)N)NC(=O)CN1CCN(CC(=O)O)CCN(CC(=O)O)CCN(CC(=O)O)CC1)C(N)=O [2a, [^177Lu]DOTA-SP(1–11), metal not drawn]	-5.12 ± 0.06	only partial		
CC(C)C[C@H](NC(=O)CNC(=O)[C@H](Cc1cccs1)NC(=O)[C@H](Cc1ccccc1)NC(=O)[C@H](CCC(N)=O)NC(=O)[C@H](CCC(N)=O)NC(=O)[C@@H]1CCCN1C(=O)[C@H](CCCCN)NC(=O)[C@@H]1CCCN1C(=O)[C@H](CCCNC(=N)N)NC(=O)CN1CCN(CC(=O)O)CCN(CC(=O)O)CCN(CC(=O)O)CC1)C(=O)N[C@@H](CCS(C)(=O)=O)C(N)=O [2b, [^177Lu]DOTA-[Thi^8,Met(O2)^11]SP(1–11), metal not drawn]	-5.28 ± 0.02	only partial	11.1 ± 2.7 nM	
CSCC[C@H](NC(=O)[C@H](CC(C)C)NC(=O)CNC(=O)[C@H](Cc1ccccc1)NC(=O)[C@H](Cc1ccccc1)NC(=O)[C@H](CCC(N)=O)NC(=O)[C@H](CCC(N)=O)NC(=O)[C@@H]1CCCN1C(=O)CN1CCN(CC(=O)O)CCN(CC(=O)O)CCN(CC(=O)O)CC1)C(N)=O [2c, [^177Lu]DOTA-SP(4–11), metal not drawn]	-2.93 ± 0.01	only partial	13.3 ± 1.6 nM	
CC(C)C[C@H](NC(=O)CNC(=O)[C@H](Cc1cccs1)NC(=O)[C@H](Cc1ccccc1)NC(=O)[C@H](CCC(N)=O)NC(=O)[C@H](CCC(N)=O)NC(=O)CN1CCN(CC(=O)O)CCN(CC(=O)O)CCN(CC(=O)O)CC1)C(=O)N[C@@H](CCS(C)(=O)=O)C(N)=O [2e, [^177Lu]DOTA-[Thi^8,Met(O2)^11]SP(5–11), metal not drawn] ({DOTA}-QQF[2Thi]GL[Met(O2)]-NH2)	-3.94 ± 0.01	virtually all of the radiobiomolecule that was deposited onto the strip was degraded enzymatically	48.7 ± 5.1 nM	
NK-1 receptor (protein) MDNVLPVDSDLSPNISTNTSEPNQFVQPAWQIVLWAAAYTVIVVTSVVGNVVVMWIILAHKRMRTVTNYFLVNLAFAEASMAAFNTVVNFTYAVHNEWYYGLFYCKFHNFFPIAAVFASIYSMTAVAFDRYMAIIHPLQPRLSATATKVVICVIWVLALLLAFPQGYYSTTETMPSRVVCMIEWPEHPNKIYEKVYHICVTVLIYFLPLLVIGYAYTVVGITLWASEIPGDSSDRYHEQVSAKRKVVKMMIVVVCTFAICWLPFHIFFLLPYINPDLYLKKFIQQVYLAIMWLAMSSTMYNPIIYCCLNDRFRLGFKHAFRCCPFISAGDYEGLEMKSTRYLQTQGSVYKVSRLETTISTVVGAHEEEPEDGPKATPSSLDLTSNCSSRSDSKTMTESFSFSSNVLS				Kd [4]: 48.7 nM; Kd [5]: 13.3 nM; Kd [6]: 11.1 nM
